Assay results as given in patent publication US20230002481A1 (Chugai, published 2023).

Experiments:
[1] = target: T1, cyno FcRn complexed with β2-microglobulin (cynomolgus monkey, UniProt Q8SPV9 24-290; Q8SPW0 21-119); assay: SPR (Biacore T200), antibody captured on Protein L, cyno FcRn 0-240 nM as analyte, steady-state analysis, pH6.0, 25 C
T1 construct: also called cynomolgous monkey neonatal Fc receptor
Protocol: Analysis of interaction between each antibody and the FcRn prepared as mentioned above was carried out using BIACORE (registered trademark) T200 (GE Healthcare). Buffer solution containing 150 mM sodium chloride, 0.05 w/v % Tween-20, 50 mM phosphate buffer (pH6.0) was used as running buffer, and the measurement temperature was set to 25 degrees C. Series S sensor Chip CM4 (GE Healthcare) onto which Protein L (BioVision) had been immobilized by the amine coupling method was used. After capturing 400 resonance unit (RU) of antibodies of interest onto the chip via the Protein L, FcRn diluted with the running buffer was allowed to interact, then the KD values were calculated. COS0098pHv1-SG1 was evaluated with 0, 250, 500, 1000, 2000, 4000 nM cyno FcRn, and COS0098pHv1-SG1077R was evaluated with 0, 15, 30, 60, 120, 240 nM cyno FcRn. Then, the chip capturing each antibody was washed by 10 mM Glycine-HCl, pH1.5, regenerated and used repeatedly. The equilibrium dissociation constant (KD (M)) for cyno FcRn was calculated for each antibody based on the steady-state analysis. The Biacore T200 Evaluation Software (GE Healthcare) was used to calculate each parameter.

cyno FcγRIIa1 = target: T2, cyno FcγRIIa1 (cynomolgus monkey); assay: SPR (Biacore T200), antibody captured on Protein L, FcγR at 1000 nM, pH7.4, 25 C
T2 construct: also called cyFcyRIIa1; not shown: C-terminal His-tag
T2 chain: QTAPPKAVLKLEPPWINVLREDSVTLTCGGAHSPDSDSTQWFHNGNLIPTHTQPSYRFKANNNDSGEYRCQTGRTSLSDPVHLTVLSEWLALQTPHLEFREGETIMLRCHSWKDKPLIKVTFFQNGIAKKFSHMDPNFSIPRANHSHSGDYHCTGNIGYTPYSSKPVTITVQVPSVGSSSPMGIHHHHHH
Protocol: (§1) Analysis of interaction between antibody and the FcγR prepared as mentioned above was carried out using BIACORE (registered trademark) T200 (GE Healthcare). 150 mMN Sodium chloride and 0.05 w/v % Tween-20 containing 50 mM phosphate buffer (pH7.4) was used as running buffer, and the measurement temperature was set to 25 degrees C. Chip produced by immobilizing Protein L (BioVision) by the amine coupling method to a Series S sensor Chip CM4 (GE Healthcare) was used. After capturing 500 or 1000 resonance unit (RU) of antibodies of interest onto the chip, FcγRs diluted with the running buffer were allowed to interact, and their binding amounts to antibodies were measured. Cyno FcγRIa was diluted to 8 nM, and others were diluted to 1000 nM. Then, antibodies captured onto the chip were washed by 10 mM Glycine-HC, pH1.5, and the chip was regenerated and used repeatedly. The binding amounts of FcγRs were divided by the binding amount of each antibody captured to obtain binding activity using biacore evaluation software, and these values were compared. Furthermore, the relative values of binding activity of COS0098pHv1-SG1077R to each FcγR to COS0098pHv1-SG1 (an antibody having the sequence of a naturally-occurring human IgG1 at positions 234 to 239, 265 to 271, 295, 296, 298, 300, and 324 to 337, according to EU numbering) were calculated.

cyno FcγRIIa2 = target: T3, cyno FcγRIIa2 (cynomolgus monkey); assay: as above
T3 construct: also called cyFcyRIIa2; not shown: C-terminal His-tag
T3 chain: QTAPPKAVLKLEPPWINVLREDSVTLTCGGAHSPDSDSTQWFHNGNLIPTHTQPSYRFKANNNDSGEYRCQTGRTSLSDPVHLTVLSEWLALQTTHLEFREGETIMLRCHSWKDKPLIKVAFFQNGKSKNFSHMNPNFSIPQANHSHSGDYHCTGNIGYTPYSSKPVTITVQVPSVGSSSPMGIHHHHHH
Protocol: as §1

cyno FcγRIIa3 = target: T4, cyno FcγRIIa3 (cynomolgus monkey); assay: as above
T4 construct: not shown: C-terminal His-tag
T4 chain: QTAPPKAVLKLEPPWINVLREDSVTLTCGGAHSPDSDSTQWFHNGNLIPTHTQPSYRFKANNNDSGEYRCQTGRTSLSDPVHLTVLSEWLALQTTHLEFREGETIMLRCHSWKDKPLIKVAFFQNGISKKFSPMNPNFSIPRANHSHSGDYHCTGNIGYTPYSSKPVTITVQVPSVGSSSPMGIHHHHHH
Protocol: as §1

cyno FcγRIIIa(S) = target: T5, cyno FcγRIIIa(S) (cynomolgus monkey, UniProt Q8SPW2 21-206 at identity 1.00)); assay: as above
T5 construct: also called cyFcyRIIIa(S); not shown: C-terminal His-tag
T5 chain: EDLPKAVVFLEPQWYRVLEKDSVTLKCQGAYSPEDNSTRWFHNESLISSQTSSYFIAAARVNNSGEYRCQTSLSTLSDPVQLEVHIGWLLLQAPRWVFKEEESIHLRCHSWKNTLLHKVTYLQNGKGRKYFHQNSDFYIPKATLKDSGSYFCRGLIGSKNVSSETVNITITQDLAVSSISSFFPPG
Protocol: as §1

cyno FcγRIIb = target: T6, cyno FcγRIIb (cynomolgus monkey); assay: as above
T6 construct: also called cyFcyRIIb; not shown: C-terminal His-tag
T6 chain: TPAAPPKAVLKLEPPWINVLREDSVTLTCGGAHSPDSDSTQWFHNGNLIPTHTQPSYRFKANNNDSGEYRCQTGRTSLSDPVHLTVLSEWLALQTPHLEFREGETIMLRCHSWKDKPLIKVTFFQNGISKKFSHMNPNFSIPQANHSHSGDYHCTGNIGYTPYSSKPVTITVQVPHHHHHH
Protocol: as §1

cyno FcγRIIIa(R) = target: T7, cyno FcγRIIIa(R) (cynomolgus monkey, UniProt Q8SPW2 17-208); assay: as above
T7 construct: also called cyFcyRIIIa(R); not shown: C-terminal His-tag
T7 sequence (Q8SPW2 other isoform, or with tags, fused parts or gaps): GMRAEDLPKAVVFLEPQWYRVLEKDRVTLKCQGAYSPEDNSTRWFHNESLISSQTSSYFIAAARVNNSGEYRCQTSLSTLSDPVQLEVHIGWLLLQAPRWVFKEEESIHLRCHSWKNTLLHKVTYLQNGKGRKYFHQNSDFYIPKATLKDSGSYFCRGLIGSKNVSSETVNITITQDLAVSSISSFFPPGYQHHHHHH
Protocol: as §1

cyno FcγRIa = target: T8, cyno FcγRIa (cynomolgus monkey, UniProt P12314 16-288 (human entry)); assay: SPR (Biacore T200), antibody captured on Protein L, FcγRIa at 8 nM, pH7.4, 25 C
T8 construct: also called cyFcyRIa; cynomolgus monkey Fc gamma receptor Ia; not shown: C-terminal His-tag
T8 chain: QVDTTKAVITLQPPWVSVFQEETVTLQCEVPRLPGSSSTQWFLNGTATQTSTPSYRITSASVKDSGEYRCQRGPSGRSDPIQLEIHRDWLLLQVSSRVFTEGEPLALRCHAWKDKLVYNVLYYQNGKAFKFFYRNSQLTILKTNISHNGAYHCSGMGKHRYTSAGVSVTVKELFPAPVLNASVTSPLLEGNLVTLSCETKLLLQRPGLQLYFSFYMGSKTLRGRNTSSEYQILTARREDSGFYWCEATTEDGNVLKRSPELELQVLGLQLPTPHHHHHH
Protocol: as §1

T1 sequence (Q8SPV9 24-290 limits assumed, chain 1 of 2): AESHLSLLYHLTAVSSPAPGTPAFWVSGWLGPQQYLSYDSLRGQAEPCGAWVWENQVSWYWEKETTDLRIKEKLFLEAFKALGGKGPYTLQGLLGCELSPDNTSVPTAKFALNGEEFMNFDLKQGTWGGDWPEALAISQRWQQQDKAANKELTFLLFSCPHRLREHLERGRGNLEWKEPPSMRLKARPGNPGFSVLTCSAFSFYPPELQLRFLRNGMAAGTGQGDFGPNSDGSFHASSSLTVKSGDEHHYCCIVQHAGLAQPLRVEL
T1 sequence (Q8SPW0 21-119 limits assumed, chain 2 of 2): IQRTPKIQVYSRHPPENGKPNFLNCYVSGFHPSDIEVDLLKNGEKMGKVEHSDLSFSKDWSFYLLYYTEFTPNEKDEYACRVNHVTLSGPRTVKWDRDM

Kd [1]: 70 nM
Binding activity value (Binding amount per 1 RU antibody) (cyno FcγRIIa1): 0.0436 RU per 1 RU antibody
Relative value of binding activity (cyno FcγRIIa1): 2.23 fold, relative to COS0098pHv1-SG1
Binding activity value (Binding amount per 1 RU antibody) (cyno FcγRIIa2): 0.0425 RU per 1 RU antibody
Relative value of binding activity (cyno FcγRIIa2): 2.51 fold, relative to COS0098pHv1-SG1
Binding activity value (Binding amount per 1 RU antibody) (cyno FcγRIIa3): 0.025 RU per 1 RU antibody
Relative value of binding activity (cyno FcγRIIa3): 3.96 fold, relative to COS0098pHv1-SG1
Binding activity value (Binding amount per 1 RU antibody) (cyno FcγRIIIa(S)): 0.0084 RU per 1 RU antibody
Relative value of binding activity (cyno FcγRIIIa(S)): 0.07 fold, relative to COS0098pHv1-SG1
Binding activity value (Binding amount per 1 RU antibody) (cyno FcγRIIb): 0.082 RU per 1 RU antibody
Relative value of binding activity (cyno FcγRIIb): 2.86 fold, relative to COS0098pHv1-SG1
Binding activity value (Binding amount per 1 RU antibody) (cyno FcγRIIIa(R)): 0.006 RU per 1 RU antibody
Relative value of binding activity (cyno FcγRIIIa(R)): 0.05 fold, relative to COS0098pHv1-SG1
Relative value of binding activity (cyno FcγRIa): 0.06 fold, relative to COS0098pHv1-SG1
B1: COS0098pHv1-SG1077R (antibody)
heavy: QVQLVQSGAEVKKPGSSVKVSCKASGHTFSKYTVSWIRQPPGKGLEWIGIINTGGSAYPATWAKGRVTITADESTSTAYMELSSLRSEDTAVYYCARGAGDTDYTNLWGQGTLVTVSSASTKGPSVFPLAPSSKSTSGGTAALGCLVKDYFPEPVTVSWNSGALTSGVHTFPAVLQSSGLYSLSSVVTVPSSSLGTQTYICNVNHKPSNTKVDKRVEPKSCDKTHTCPPCPAPELWNGPSVFLFPPKPKDTLMISRTPEVTCVVVDVSDEDPEVKFNWYVDGVEVHNAKTKPREELYNSTYRVVSVLTVLHRDWLNGKEYKCKVSNTALPKPIEKTISKAKGQRREPQVYTLPPSREEMTKNQVSLTCLVKGFYPSDIAVEWESNGQPENNYKTTPPVLDSDGSFFLYSKLTVDKSRWQQGNVFSCSVLHEALHAHTTRKELSLSP
light: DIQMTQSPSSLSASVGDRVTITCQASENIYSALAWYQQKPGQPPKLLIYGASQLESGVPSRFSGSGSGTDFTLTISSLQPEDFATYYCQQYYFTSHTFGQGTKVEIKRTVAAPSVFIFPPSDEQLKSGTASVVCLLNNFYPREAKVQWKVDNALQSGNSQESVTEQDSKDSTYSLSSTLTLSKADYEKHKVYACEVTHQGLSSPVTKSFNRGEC
notes: also called COS009pHv1-SG1077R; COS009BpHv1-SG1077R
